Patent publication US10137183B2, “Peptide compositions having 4 linked CTL epitopes and uses thereof” (TAIHO PHARMACEUTICAL CO., LTD., priority 2013, dated 2018)

Target: T1, Human 20S immunoproteasomes (Homo sapiens, UniProt P28062+P28065+P40306)
T1 construct: purchased R&D systems
Assay: Peptide cleavage with human 20S immunoproteasomes (i20S), LC/MS-MS of fragments
Format: biochemical
Details: 66.7 μg/mL peptide, 37° C., 1, 2 or 4 hours
Method: Cleavage samples of peptides having 4 linked epitopes were prepared in the manner described below. Specifically, peptides having 4 linked epitopes were diluted to 66.7 μg/mL with a reaction buffer (20 mM HEPES-KOH, pH 7.8, 2 mM MgAc2, 2 mM dithiothreitol), and the resultant was dispensed into reaction tubes in amounts of 300 μL per tube. Human 20S immunoproteasomes (R&D systems) were added thereto in amounts of 2 μg per tube, the mixtures were agitated, and the resultants were then subjected to incubation with shaking at 37° C. for 1, 2, or 4 hours. […]
Subsequently, the obtained cleavage samples of the peptides having 4 linked epitopes were applied to the LC/MS-MS systems (Acquity UPLC system, Waters; Synapt G2 HDMS, Waters), so as to perform comprehensive analysis of the molecular weights of the peptide fragments. With the use of analytical software (MassLynx, ver. 4.1, SCN712, Waters), the samples were analyzed, and the peptide fragments were identified. The peptides having 4 linked epitopes were evaluated to be cleavable upon development of any of a peptide in which the epitope peptide was cleaved, a peptide comprising arginine residues added to the N terminus of the epitope peptide, or a peptide comprising an arginine dimer added to the N terminus of the epitope peptide, as a result of cleavage with immunoproteasomes.

Row | Sequence | cleavage determining the C terminal amino acids of the CTL epitope peptide
1 | ILEQSGEWWK (listed as Homo sapiens) [PEP10] | required to be located at positions nearest to the C terminus
2 | ASLDSDPWV (listed as Homo sapiens) [PEP2] | required to be located at positions nearest to the C terminus
